From patent US20200397913A1, “AXL-SPECIFIC ANTIBODY-DRUG CONJUGATES FOR CANCER TREATMENT” (GENMAB A/S, priority 2015, published 2020)
Marks after values point to notes of the source that are not given here.

Columns and labels:
AXL on A431 cells = target: T1, AXL on A431 cells (Homo sapiens, UniProt P30530); assay: Antibody binding to A431 cells with or without Gas6 pre-incubation; details: for Antibody binding to A431 cells: EC50 w/o Gas6 mean (s.d.): no Gas6 pre-incubation; for Antibody binding to A431 cells: EC50 in presence of Gas6 mean (s.d.): pre-incubation with 10 μg/mL Gas6
T1 construct: AXL-positive A431 cells were incubated; endogenous in cells; host or cells: A431

[1] = target: Gas6 binding to AXL on A431 cells (Homo sapiens, UniProt P30530); assay: Gas6 binding to A431 cells pre-incubated with AXL antibodies; parameters: endogenous in cells; host or cells: A431; details: pre-incubation with 10 μg/mL antibody; control antibody b12
Description: Alternatively, A431 cells were pre-incubated with 10 μg/mL AXL antibodies (15 minutes, 4° C.) to assess if the AXL ligand Gas6 could still bind in presence of AXL antibodies. […] After washing three times in PBS/0.1% BSA/0.02% azide, cells were incubated with mouse anti-Gas6 IgG2a (R&D Systems; cat no. MAB885) at 4° C. for 30 min. After washing three times in PBS/0.1% BSA/0.02% azide, cells were incubated with FITC-labelled goat anti-mouse IgG (Dako, Heverlee, Belgium; cat no. F049702) at 4° C. for 30 min in the dark. Next, cells were washed twice in PBS/0.1% BSA/0.02% azide, resuspended in 120 μL PBS/0.1% BSA/0.02% azide and analyzed on a FACS Cantoll (BD Biosciences).
(§1) Binding curves were analyzed using non-linear regression (sigmoidal dose-response with variable slope) using GraphPad Prism V5.04 software (GraphPad Software, San Diego, Calif., USA).
Therefore, binding of Gas6 to A431 cells that had been pre-incubated with 10 μg/mL AXL antibodies was tested as described in Example 2.

[2] = target: T2, human AXL with a cynomolgus monkey extracellular domain (ECD) (Homo sapiens, UniProt P30530, P441T/S191N/S285L/T105A/T112A/T125N/T443A); assay: Flow cytometry binding to HEK293T cells transfected with human AXL with cynomolgus ECD; details: at least 3 experiments
T2 construct: aa 1-447); expressed in transfected cells; host or cells: HEK293T

[3] = target: T3, AXLECDHis (extracellular domain of human AXL) (Homo sapiens, UniProt P30530); assay: Binding affinity by Bio-Layer Interferometry (Octet); details: for Kdis / Kon: soluble AXLECDHis, 30° C, 1:1 model
T3 construct: the extracellular domain (ECD) of human AXL (aa 1-447) with a C-terminal His tag (AXLECDHis); His tag (C); made in house; host or cells: HEK-293F

human AXL = target: T4, human AXL (Homo sapiens, UniProt P30530); assay: Flow cytometry binding to HEK293T cells transfected with full length human AXL; details: at least 3 experiments
T4 construct: expression constructs for full length human AXL; expressed in transfected cells; host or cells: HEK293T

[4] = target: T5, human AXL with a mouse ECD (Mus musculus, UniProt Q00993, A791T/A867T/C878S/D603E/D853E/E609A/F637Y/G606S/G869S/H824Y/L452V/L825P/L872Q/P881A/R785Q/R828P/S823G/S856P/S873P/T871A/V766A); assay: Flow cytometry binding to HEK293T cells transfected with human AXL with mouse ECD; details: 0.0024-10 μg/mL
T5 construct: aa 1-441); expressed in transfected cells; host or cells: HEK293T

[5] = system: MDA-MB-231 and Calu-1 cells; assay: Internalization of cell surface bound HuMab-AXL by flow cytometry; format: cell-based, human; details: 1 hour 4° C, then overnight 37° C versus 4° C
Description: Internalization of cell surface bound HuMab-AXL antibodies to MDA-MB-231 and Calu-1 cells (human lung carcinoma cell line; ATCC, catalognumber HTB-54) was evaluated by flow cytometry. 50,000 cells were seeded in 96-well tissue culture plates and allowed to attach for 6 hrs at 37° C. Plates were incubated at 4° C. for 30 minutes before incubation with serial dilutions of AXL-antibodies (final concentration range 0.0032-10 μg/mL) at 4° C. for 1 hour. Subsequently, the medium was replaced by tissue culture medium without antibody and cells were incubated overnight (16-18 hours) at 37° C. or 4° C. […] Finally, cells were washed twice in PBS/0.1% BSA/0.02% azide, resuspended in 120 μL PBS/0.1% BSA/0.02% azide and analyzed on a FACS Cantoll (BD Biosciences).
as §1

[6] = target: T6, human AXL transiently expressed by HEK-293F cells (Homo sapiens, UniProt P30530); assay: Homogeneous antigen specific screening assay (FMAT); details: binding to human AXL on HEK-293F cells
T6 construct: HEK-293F cells transiently expressing full length human AXL; expressed in transfected cells; host or cells: HEK-293F

T5 sequence (Q00993 19-888 with the stated changes): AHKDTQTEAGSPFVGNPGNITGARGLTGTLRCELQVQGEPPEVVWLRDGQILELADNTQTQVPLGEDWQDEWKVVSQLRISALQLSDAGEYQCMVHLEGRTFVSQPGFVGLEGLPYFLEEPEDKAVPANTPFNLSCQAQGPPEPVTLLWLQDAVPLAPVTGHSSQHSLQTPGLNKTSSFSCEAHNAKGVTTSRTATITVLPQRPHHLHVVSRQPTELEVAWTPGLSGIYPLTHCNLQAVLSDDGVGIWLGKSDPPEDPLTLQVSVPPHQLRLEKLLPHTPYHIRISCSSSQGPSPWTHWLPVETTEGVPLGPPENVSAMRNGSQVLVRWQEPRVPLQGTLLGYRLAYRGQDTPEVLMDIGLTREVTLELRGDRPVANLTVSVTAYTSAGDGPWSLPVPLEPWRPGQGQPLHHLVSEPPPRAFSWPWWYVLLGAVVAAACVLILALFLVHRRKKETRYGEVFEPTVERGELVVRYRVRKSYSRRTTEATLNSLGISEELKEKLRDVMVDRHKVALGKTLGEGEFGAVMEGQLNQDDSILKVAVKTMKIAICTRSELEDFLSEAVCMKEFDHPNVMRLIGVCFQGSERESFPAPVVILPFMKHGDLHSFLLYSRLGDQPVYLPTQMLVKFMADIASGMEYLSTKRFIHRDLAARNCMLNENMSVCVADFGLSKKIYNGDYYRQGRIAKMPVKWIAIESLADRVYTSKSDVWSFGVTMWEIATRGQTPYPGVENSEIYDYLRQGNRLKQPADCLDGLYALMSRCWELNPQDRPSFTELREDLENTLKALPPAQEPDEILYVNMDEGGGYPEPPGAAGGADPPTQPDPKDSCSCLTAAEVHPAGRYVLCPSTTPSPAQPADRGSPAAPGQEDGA

B1: IgG1-AXL-733: human IgG1,κ anti-AXL antibody, VH SEQ ID NO:34, VL SEQ ID NO:35; FN1 domain binding (antibody, V domains shown)
VH: QVQLVESGGGVVQPGRSLRLSCAASGFSFSTYAMHWVRQAPGKGLEWVAVISYDGDNKYSADSVKGRFTISRDNSKNTLYLQMNSLRAEDTAVYYCARGRKLGIDAFDIWGQGTMVTVSS
VL: AIQLTQSPSSLSASVGDRVTITCRASQGISSALAWYQQKPGKAPKLLIYDASSLESGVPSRFSGSGSGTDFTLTISGLQPEDFATYYCQQFNSYPFTFGPGTKVDIK
modifications: homo sapiens
**Q.** What does the source list for B1?
**A.** Antibody binding to A431 cells: EC50 w/o Gas6 mean (s.d.) (AXL on A431 cells): 0.49 (0.51) μg/mL; Antibody binding to A431 cells: EC50 in presence of Gas6 mean (s.d.) (AXL on A431 cells): 0.62 (0.23) μg/mL; Gas6 binding: Maximal binding in presence of AXL antibodies (% of binding in presence of control antibody) [1]: 96%; Binding EC50 cynomolgus AXL Average (s.d.) [2]: 0.254 (0.114) μg/mL; Kdis [3]: 0.0097 s⁻¹; Kon [3]: 160000 M⁻¹ s⁻¹; Binding EC50 human AXL Average (s.d.) (human AXL): 0.176 (0.094) μg/mL; binding to AXL with a mouse ECD [4]: low; internalization of membrane-bound antibody [5]: internalize

B2: IgG1-AXL-183-N52Q: point mutant of IgG1-AXL-183, VH SEQ ID NO:17, VL SEQ ID NO:18 (antibody, V domains shown)
VH: QVQLQQWGAGLLKPSETLSLTCAVYGGSFSGYYWSWIRQPPGKGLEWIGEIQQSGSTNYNPSLKSRVTISVDTSKNQFSLKLSSVTAADTSVYYCASGNWDHFFDYWGQGTLVTVSS
VL: DIQMTQSPSSVSASVGDRVTITCRASQGISSWLAWYQHKPGKAPKLLIYATSSLQSGVTSRFSGSGSGTDFTLTISSLQPEDFATYYCQQAKSFPWTFGQGTKVEIK
modifications: homo sapiens
**Q.** For B2, which “Binding EC50 cynomolgus AXL Average (s.d.)” value [2] is on record?
**A.** 0.324 (0.121) μg/mL

**Q.** And the “dissociation rate, fold higher than wild-type IgG1-AXL-183” value [3]?
**A.** approximately 2.5 fold

**Q.** What about the Kdis [3] of the same molecule?
**A.** 0.001 s⁻¹

**Q.** And the Kon [3]?
**A.** 42000 M⁻¹ s⁻¹

**Q.** And the “Binding EC50 human AXL Average (s.d.)” value (human AXL)?
**A.** 0.350 (0.206) μg/mL

**Q.** What about the “binding to AXL with a mouse ECD” value [4] of the same molecule?
**A.** low

**Q.** And the “internalization of membrane-bound antibody” value [5]?
**A.** internalize

B3: IgG1-AXL-183: human IgG1,κ anti-AXL antibody, VH SEQ ID NO:16, VL SEQ ID NO:18; FN1 domain binding (antibody, V domains shown)
VH: QVQLQQWGAGLLKPSETLSLTCAVYGGSFSGYYWSWIRQPPGKGLEWIGEINQSGSTNYNPSLKSRVTISVDTSKNQFSLKLSSVTAADTSVYYCASGNWDHFFDYWGQGTLVTVSS
VL: DIQMTQSPSSVSASVGDRVTITCRASQGISSWLAWYQHKPGKAPKLLIYATSSLQSGVTSRFSGSGSGTDFTLTISSLQPEDFATYYCQQAKSFPWTFGQGTKVEIK
modifications: homo sapiens
**Q.** For B3, which “Antibody binding to A431 cells: EC50 w/o Gas6 mean (s.d.)” value (AXL on A431 cells) is on record?
**A.** 0.69 (0.72) μg/mL

**Q.** And the “Antibody binding to A431 cells: EC50 in presence of Gas6 mean (s.d.)” value (shortened to “Antibody binding … of Gas6 mean (s.d.)”) (AXL on A431 cells)?
**A.** 1.19 (1.11) μg/mL

**Q.** And the “Gas6 binding: Maximal binding in presence of AXL antibodies (% of binding in presence of control antibody)” value [1]?
**A.** 115%

**Q.** And the “Binding EC50 cynomolgus AXL Average (s.d.)” value [2]?
**A.** 0.309 (0.086) μg/mL

**Q.** What about the Kdis [3] of the same molecule?
**A.** 0.00042 s⁻¹

**Q.** And the Kon [3]?
**A.** 41000 M⁻¹ s⁻¹

**Q.** And the “Binding EC50 human AXL Average (s.d.)” value (human AXL)?
**A.** 0.526 (0.177) μg/mL

**Q.** What about the “binding to AXL with a mouse ECD” value [4] of the same molecule?
**A.** low

B4: IgG1-AXL-511: human IgG1,κ anti-AXL antibody, VH SEQ ID NO:136, VL SEQ ID NO:140; Ig2 domain binding (antibody, V domains shown)
VH: EVQLLESGGGLVQPGGSLRLSCAASGFTFSSYAMNWVRQAPGKGLEWVSGISGSGGHTYHADSVKGRFTISRDNSKNTLYLQMNSLRAEDTAVYYCAKDRYDILTGYYNLLDYWGQGTLVTVSS
VL: DIQMTQSPSSLSASVGDRVTITCRASQGISSWLAWYQQKPEEAPKSLIYAASSLQSGVPSRFSGSGSGTDFTLTISSLQPEDFATYYCQQYNSYPLTFGGGAKVEIK
modifications: homo sapiens
**Q.** B4 was tested. Which “Antibody binding to A431 cells: EC50 w/o Gas6 mean (s.d.)” value (AXL on A431 cells) did it give?
**A.** 0.12 (0.11) μg/mL

**Q.** What about the “Antibody binding … of Gas6 mean (s.d.)” value (AXL on A431 cells) of the same molecule?
**A.** 0.30 (0.31) μg/mL

**Q.** And the “Gas6 binding: Maximal binding in presence of AXL antibodies (% of binding in presence of control antibody)” value [1]?
**A.** 113%

**Q.** What about the Kdis [3] of the same molecule?
**A.** 0.0039 s⁻¹

**Q.** What about the Kon [3] of the same molecule?
**A.** 170000 M⁻¹ s⁻¹

**Q.** And the “internalization of membrane-bound antibody” value [5]?
**A.** internalize

B5: IgG1-AXL-140: human IgG1,κ anti-AXL antibody, VH SEQ ID NO:3, VL SEQ ID NO:4 (antibody, V domains shown)
VH: EVQLLESGGGLVQPGGSLRLSCAASGFTFSSYAMTWVRQAPGKGLEWVSAISISGASTFYADSVKGRFTISRDNSKNTLSLQMNSLRAEDTAVYFCRGYSGYVYDAFDIWGQGTMVTVSS
VL: DIQMTQSPSSLSASVGDRVTITCRASQGISNWLAWYQQKPEKAPKSLIYAASSLQSGVPSRFSGSGSGTDFTLTISSLQPEDFATYYCQQYNSYPLTFGGGTKVEIK
modifications: homo sapiens
**Q.** B5 was tested. Which Maximal binding [6] did it give?
**A.** 2889 Arbitrary units

B6: IgG1-AXL-187: human IgG1,κ anti-AXL antibody, VH SEQ ID NO:19, VL SEQ ID NO:20 (antibody, V domains shown)
VH: QVPLQQWGAGLLKPSETLSLTCAVYGGSFSGYHWSWIRQPPGKGLEWIGEISHSGRTNYNPSLKSRVTISIDTSKNQFSLKLSSVTAADTAVYYCASFITMIRGTIITHFDYWGQGTLVTVSS
VL: DIQMTQSPSSLSASVGDRVTITCRASQGISSWLAWYQQKPEKAPKSLIYAASSLQSGVPSRFSGSGSGTDFTLTISSLQPEDFATYYCQQYHSYPYTFGQGTKLEIK
modifications: homo sapiens
**Q.** Which Maximal binding [6] does the source give for B6 here?
**A.** 2563 Arbitrary units

B7: IgG1-AXL-726: human IgG1,κ anti-AXL antibody, VH SEQ ID NO:31, VL SEQ ID NO:33; FN2 domain binding (antibody, V domains shown)
VH: QVQLQQWGAGLLKPSETLSLTCAIDGGSFSGYYWSWIRQPPGKGLEWIGEISHSGRTNYNPSLKSRVTISIDTSKNQFSLKLSSVAAADTAVYYCARFITMIRGAIITHFDYWGQGALVTVSS
VL: DIQMTQSPSSLSASVGDRVTITCRASQGISSWLAWYQQKPEKAPKSLIYAASSLQSGVPSRFSGSGSGTDFTLTISSLQPEDFATYYCQQYHSYPYTFGQGTKLEIK
modifications: homo sapiens
**Q.** For B7, which “Antibody binding to A431 cells: EC50 w/o Gas6 mean (s.d.)” value (AXL on A431 cells) is on record?
**A.** 0.32 (0.35) μg/mL

**Q.** What about the “Antibody binding … of Gas6 mean (s.d.)” value (AXL on A431 cells) of the same molecule?
**A.** 0.55 (0.69) μg/mL

**Q.** What about the “Gas6 binding: Maximal binding in presence of AXL antibodies (% of binding in presence of control antibody)” value [1] of the same molecule?
**A.** 98%

**Q.** What about the “Binding EC50 cynomolgus AXL Average (s.d.)” value [2] of the same molecule?
**A.** 0.349 (0.160) μg/mL

**Q.** And the Kdis [3]?
**A.** 0.00013 s⁻¹

**Q.** What about the Kon [3] of the same molecule?
**A.** 240000 M⁻¹ s⁻¹

**Q.** And the Maximal binding [6]?
**A.** 3154 Arbitrary units

**Q.** What about the “Binding EC50 human AXL Average (s.d.)” value (human AXL) of the same molecule?
**A.** 0.288 (0.206) μg/mL

**Q.** What about the “binding to AXL with a mouse ECD” value [4] of the same molecule?
**A.** not detectable
